According to US20220289861A1:

Experiments:
[1] = target: truncated human CD163 ECD SRCR domain 1-5 fragment with C-terminus histidine tag (human) (UniProt Q86VB7); test: ratio of EC50 on huCD163 SRCR 1-5 to EC50 on huCD163 ECD
[2] = target: recombinant murine CD163 (R&D Systems, No. 7435-CD-050) (murine) (UniProt Q2VLH6); test: ELISA on plate-coated recombinant murine CD163 (5 ug/mL)
Sequence of recombinant murine CD163 (R&D Systems, No. 7435-CD-050) (murine) (Q2VLH6 39-1045 limits assumed): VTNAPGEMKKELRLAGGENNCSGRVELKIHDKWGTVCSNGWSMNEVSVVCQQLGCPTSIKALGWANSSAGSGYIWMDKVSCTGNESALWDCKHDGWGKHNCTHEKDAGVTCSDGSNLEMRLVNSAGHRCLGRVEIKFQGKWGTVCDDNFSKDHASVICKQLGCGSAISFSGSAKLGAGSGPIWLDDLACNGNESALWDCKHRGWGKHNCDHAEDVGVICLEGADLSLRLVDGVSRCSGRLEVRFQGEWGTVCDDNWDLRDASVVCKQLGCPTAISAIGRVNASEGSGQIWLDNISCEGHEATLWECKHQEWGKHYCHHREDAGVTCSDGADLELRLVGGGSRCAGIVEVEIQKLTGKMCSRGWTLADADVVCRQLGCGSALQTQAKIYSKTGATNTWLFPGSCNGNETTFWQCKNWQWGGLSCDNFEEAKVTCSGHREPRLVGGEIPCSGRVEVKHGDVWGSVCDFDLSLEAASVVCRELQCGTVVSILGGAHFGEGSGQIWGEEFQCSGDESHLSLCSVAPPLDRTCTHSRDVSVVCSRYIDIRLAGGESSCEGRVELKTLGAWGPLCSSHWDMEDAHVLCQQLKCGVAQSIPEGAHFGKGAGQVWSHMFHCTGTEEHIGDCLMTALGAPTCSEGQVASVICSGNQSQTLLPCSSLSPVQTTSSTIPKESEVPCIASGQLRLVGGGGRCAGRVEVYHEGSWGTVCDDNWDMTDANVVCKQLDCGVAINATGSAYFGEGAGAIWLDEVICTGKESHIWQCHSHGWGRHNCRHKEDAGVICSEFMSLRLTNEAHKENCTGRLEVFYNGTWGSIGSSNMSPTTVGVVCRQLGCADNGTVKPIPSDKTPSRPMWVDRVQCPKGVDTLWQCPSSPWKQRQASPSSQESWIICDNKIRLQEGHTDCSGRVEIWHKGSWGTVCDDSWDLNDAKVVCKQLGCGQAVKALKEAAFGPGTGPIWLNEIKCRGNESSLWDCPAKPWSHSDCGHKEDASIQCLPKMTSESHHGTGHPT

Sequence of truncated human CD163 ECD SRCR domain 1-5 fragment with C-terminus histidine tag (human) (Q86VB7 42-578 limits assumed): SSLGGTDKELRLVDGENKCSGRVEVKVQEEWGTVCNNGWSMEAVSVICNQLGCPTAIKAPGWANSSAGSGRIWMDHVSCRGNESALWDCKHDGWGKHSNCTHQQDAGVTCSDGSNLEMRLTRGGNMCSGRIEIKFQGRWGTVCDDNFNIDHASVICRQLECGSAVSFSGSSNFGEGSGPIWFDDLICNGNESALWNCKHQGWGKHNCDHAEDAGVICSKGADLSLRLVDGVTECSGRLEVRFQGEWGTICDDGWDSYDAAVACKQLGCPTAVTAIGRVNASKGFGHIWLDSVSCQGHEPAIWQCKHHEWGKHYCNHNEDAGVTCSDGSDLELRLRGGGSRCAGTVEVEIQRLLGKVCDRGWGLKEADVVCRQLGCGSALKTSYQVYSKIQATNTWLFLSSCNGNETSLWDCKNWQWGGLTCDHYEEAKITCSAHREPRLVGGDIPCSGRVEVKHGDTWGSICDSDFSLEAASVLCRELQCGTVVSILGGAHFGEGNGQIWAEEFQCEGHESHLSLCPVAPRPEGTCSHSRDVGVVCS

Row | Substance | Ratio SRCR 1-5/ECD [1] | EC50 (read off the curve) [2]
1 | EDHu-1 (antibody) | 0.96 | –
2 | 215927 (antibody) | 1.17 | –
3 | commercially available rat anti-muCD163 antibody (Thermo Fisher Scientific #14-1631-82) | – | 0.03 nM
